This passage reports Kd results from patent US20250032605A1 (GENERAL HOSPITAL, published 2025).

Read-outs that look alike come from different tables or passages of the source.

Holding throughout (assay): BLI with recombinant Fabs, drawn table of KD (µM)
Assay [1] has as its target RaTG13.
Assay [2] concerns the target SHC014.
Assay [3] concerns the target T1, SARS-2 RBD (wild-type SARS-CoV-2 receptor binding domain, monomer) (SARS-CoV-2, UniProt P0DTC2 319-529).
In assay [4] the target is T2, SARS-1 RBD (SARS-CoV receptor binding domain, monomer) (SARS-CoV (SARS-1), UniProt P59594 306-515).
The target of assay [5] is T3, WIV1 RBD (WIV1-CoV receptor binding domain, monomer) (WIV1-CoV).
Assay [6] deals with RaTG13. The source holds these as a separate data set.
For assay [7], the target named is SHC014. This is another data set of the same source.
Assay [8] deals with T1, SARS-2 RBD (wild-type SARS-CoV-2 …). This is another data set of the same source.
In assay [9] the target is T2, SARS-1 RBD (SARS-CoV receptor binding …). This is another data set of the same source.
Assay [10] concerns the target T3, WIV1 RBD (WIV1-CoV receptor binding …). The source holds these as a separate data set.

In general, Kd refers to the free concentration of one partner at which half of the binding sites on the other are occupied at equilibrium, for simple one-to-one binding.

B1: Ab19 Fab (Fab, V domains shown)
VH: QVQLQQSGAELARPGASVKLSCKASGYPFTSYGINWVKQRTGQGLEWIGEIYPRIGNTYYNEKFKGKATLTADKSSSTAYMEFRSLTSEDSAVYFCARSWNSNYGEYYFDYWGQGTTLTVS
VL: DIVMTQSHKFMSTSIGDRVSITCKASHDVSTAVAWYQQKPGQSPKLLIYWASTRHTGVPDRFTGSGSGTDYTLTIRSVQAEDLALYYCQQHYSTPYTFGGGTKLEIK
B1: the Kd in [1] was above 100000 nM; in assay [2], above 100000 nM; in [3] it was 2000 nM; in [4], above 100000 nM; in [5], above 100000 nM; in assay [6] it was above 100000 nM. In addition, the Kd was above 100000 nM in [7], 2000 nM in assay [8], above 100000 nM in [9] and above 100000 nM in [10].

B2: Ab20 Fab (Fab, V domains shown)
VH: EVQLQQSGPELVKPGASVKISCKASGFSFTGYSMNWMKQSPEKSLEWIGEINPTTGGTTYNQKFKAKATLTVDKSSSTAYIQLKSLTSEDSAVYYCARGRADYWGQGTTLTVSS
VL: DIVLTQSPASLAVSLGQRATISCRASESVEYYGTGLVQWFQQKPGQPPKLLIYAASNVESGVPARFSGSGSGTDFSLNIHSVEEDDIAMYFCHQSRKLPWTFGGGTKLEIK
As to B2, the Kd is above 100000 nM in assay [1]; above 100000 nM in [2]; 30 nM in [3]; above 100000 nM in assay [4]; above 100000 nM in [5]; above 100000 nM in assay [6]. In addition, the dissociation constant Kd in assay [7], in assay [9] and in assay [10] was above 100000 nM throughout.

B3: Ab15 Fab (Fab, V domains shown)
VH: EVQLQQSGPELVKPGASVKISCKASGYSFTGYYMNWVKQSPEKSLEWIGEINPNFGGTTYNQKFKAKATLTVDKSSSTAYMQLKSLTSEDSAVYYCARYYGNLYAMDYWGQGTSVTVS
VL: DILMTQSPSSMSVSLGDTVSITCHASQGISSNIGWLQQKPGKSFKGLIYHGTNLEDGVPSRFSGSGSGAAYSLTISSLESEDFADYYCVQYTHFPYTFGGGTKLEIK
With B3, the Kd in assay [1] worked out at 1200 nM; in assay [3], 1100 nM; in assay [6], 1200 nM; in assay [8] it was 1100 nM.

B4: Ab17 Fab (Fab, V domains shown)
VH: EVQLQQSGPELVKPGASVKISCKASGYSFTDYYMNWVKQSPEKSLEWIGEINPNTGGTTYNQKFKAKATLTVDKSSSTAYMQLKSLTSEDSAVYYCARYYGNLYAMDYWGQGTSVTVSS
VL: DILMTQSPSSMSVSLGDTVSITCHASQGISSNIGWLQQKPGKSFKGLIYHGTNLEDGVPSRFSGSGSGADYSLTISSLESEDFADYYCVQYVQFPYTLGGGTKLEIK
Take B4: the Kd in assay [1] amounted to 180 nM; in [2] it was 90 nM; in assay [3], 70 nM; in assay [4], 80 nM; in assay [5], 370 nM.

B5: Ab16 Fab (Fab, V domains shown)
VH: EVQLQQSGPELVKPGASVKISCKASGYSFNNYYMNWVKQSPEKSLEWIGEINPNSGYTSYNQKFRAKATLTVDKSSTTAYMQLKSLTSEDSAVYYCARYFGNLFAMDFWGQGTSVTVS
VL: DILMTQSPSSMSVSLGDTVSITCHASQGIGSNIGWLQQKPGKSFKGLIYLGTNLEDGVPSRFSGSGSGADYSLTISSLESEDFADYYCVQYVQFPYTFGGGTKLEIK
In the case of B5, the Kd in assay [1] is 200 nM; in [2], 90 nM; in assay [3], 30 nM; in assay [4] it was 100 nM; in assay [5], 210 nM.
